# Changes are numbered by the printed parent chain.
# T1: GFRα4 isoform a (GFRα4a), Fc fusion with 6 His (human)
# T1 construct: the entry holds the whole fusion; also called GFR4α4a; immobilized GFRα4 isoform a
# T1 chain: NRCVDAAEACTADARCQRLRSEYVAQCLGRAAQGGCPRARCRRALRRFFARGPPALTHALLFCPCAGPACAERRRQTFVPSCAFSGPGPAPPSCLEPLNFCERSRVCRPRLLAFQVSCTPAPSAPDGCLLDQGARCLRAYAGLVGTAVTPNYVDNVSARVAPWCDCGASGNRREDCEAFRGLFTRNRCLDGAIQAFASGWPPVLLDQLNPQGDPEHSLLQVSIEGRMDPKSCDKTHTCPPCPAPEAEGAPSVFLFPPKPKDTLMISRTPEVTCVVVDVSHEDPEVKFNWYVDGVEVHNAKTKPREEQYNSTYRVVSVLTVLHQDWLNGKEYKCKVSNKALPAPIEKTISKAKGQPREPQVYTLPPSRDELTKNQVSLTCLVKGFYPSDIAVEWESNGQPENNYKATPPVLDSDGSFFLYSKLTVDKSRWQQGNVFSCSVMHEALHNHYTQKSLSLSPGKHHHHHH
# B1: 0.410HC.410LC (scFv)
# scFv: QFVLTQSPSVSAALGASAKLTCTLSSAHKTYTIDWYQQQQGEAPRYLMQVKSDGSYTKGTGVPDRFSGSSSGADRYLIIPSVQADDEAGYVCGADDNGGYVFGGGTQLTVTGGGSSRSSSSGGGGSGGGGQSVKESEGGLFKPTDTLTLTCTVSGFSLSRHALTWVRQAPGNGLEWIGAIDNAGTTYYASWAKSRSTITRNTDLHTVTLKMTSLTASDTATYFCARVFYDINSGYYLDGMDLWGPGTLVTVSS
# notes: pIII not in the entry; order Vλ-linker-VH; positive control; also called original rabbit P4-10 scFv; scFv 0
# B2: 16.H1m1.L1m1 (scFv)
# scFv: QFVLTQSPSASASLGASVKLTCTLSSAHKTYTIDWYQQQPEKGPRYLMQVKSDGSYTKGTGVPDRFSGSSSGADRYLTISSLQSEDEADYYCGADDNGGYVFGGGTQLTVTGGGSSRSSSSGGGGSGGGGQQSVKESGPGLVKPSETLSLTCAVSGFSLSRHALTWVRQPPGKGLEWIGAIDNAGTTYYASWAKSRVTISRNTDLHTVSLKLSSVTAADTAVYFCARVFYDINSGYYLDGMDLWGPGTLVTVSS
# notes: pIII not in the entry; order Vλ-linker-VH; also called scFv 16
# B3: 29.H2.L1m3 (scFv)
# scFv: QLVLTQSPSASASLGASVKLTCTLSSAHKTYTIDWYQQQPEKGPRYLMQVKSDGSYTKGTGVPDRFSGSSSGADRYLTISSLQSEDEADYYCGADDNGGYVFGGGTQLTVTGGGSSRSSSSGGGGSGGGGEVQLVESGGGLVQPGGSLRLSCAASGFTFSRHALTWVRQAPGKGLEWVSAIDNAGTTYYASWAKSRFTISRDNAKNSLYLQMNSLRAEDTAVYYCARVFYDINSGYYLDGMDLWGPGTLVTVSS
# notes: pIII not in the entry; order Vλ-linker-VH; The printed VL ends TVT; also called scFv 29
# B4: 21.H2.L1m2 (scFv)
# scFv: B3 scFv with L2F, Y36H, V62I, D74E, T111L
# notes: pIII not in the entry; order Vλ-linker-VH; also called scFv 21
# B5: 23.H1.L2m1 (scFv)
# scFv: QFVLTQPPSASGTPGQRVTISCTLSSAHKTYTIDWYQQLPGTAPKLLIYVKSDGSYTKGTGVPDRFSGSSSGADRYLAISGLQSEDEADYYCGADDNGGYVFGGGTQLTVTGGGSSRSSSSGGGGSGGGGQVQLQESGPGLVKPSETLSLTCAVSGYSISRHALTWIRQPPGKGLEWIGAIDNAGTTYYASWAKSRVTISVDTSKNQFSLKLSSVTAADTAVYYCARVFYDINSGYYLDGMDLWGPGTLVTVSS
# notes: pIII not in the entry; order Vλ-linker-VH; also called scFv 23
# B6: 3.H1m1.L3 (scFv)
# scFv: QSALTQPASVSGSPGQSITISCTGTSAHKTYTVSWYQQHPGKAPKLMIYVKSDGSYNRPSGVSNRFSGSKSGNTASLTISGLQAEDEADYYCGADDNGGYVFGGGTKLTVLGGGSSRSSSSGGGGSGGGGQQSVKESGPGLVKPSETLSLTCAVSGFSLSRHALTWVRQPPGKGLEWIGAIDNAGTTYYASWAKSRVTISRNTDLHTVSLKLSSVTAADTAVYFCARVFYDINSGYYLDGMDLWGPGTLVTVSS
# notes: pIII not in the entry; order Vλ-linker-VH; also called scFv 3; H1m.L3
# B7: 1.H1.L3 (scFv)
# scFv: QSALTQPASVSGSPGQSITISCTGTSAHKTYTVSWYQQHPGKAPKLMIYVKSDGSYNRPSGVSNRFSGSKSGNTASLTISGLQAEDEADYYCGADDNGGYVFGGGTKLTVLGGGSSRSSSSGGGGSGGGGQVQLQESGPGLVKPSETLSLTCAVSGYSISRHALTWIRQPPGKGLEWIGAIDNAGTTYYASWAKSRVTISVDTSKNQFSLKLSSVTAADTAVYYCARVFYDINSGYYLDGMDLWGPGTLVTVSS
# notes: pIII not in the entry; order Vλ-linker-VH; also called scFv 1
# B8: 5.H2.L2 (scFv)
# scFv: QSVLTQPPSASGTPGQRVTISCSGSSAHKTYTVNWYQQLPGTAPKLLIYVKSDGSYQRPSGVPDRFSGSKSGTSASLAISGLQSEDEADYYCGADDNGGYVFGGGTKLTVLGGGSSRSSSSGGGGSGGGGEVQLVESGGGLVQPGGSLRLSCAASGFTFSRHALTWVRQAPGKGLEWVSAIDNAGTTYYASWAKSRFTISRDNAKNSLYLQMNSLRAEDTAVYYCARVFYDINSGYYLDGMDLWGPGTLVTVSS
# notes: pIII not in the entry; order Vλ-linker-VH; also called scFv 5
# B9: 15.H1m1.L1 (scFv)
# scFv: B2 scFv with F2L, D34A, Y36H, Q49K, T57S, T60D, V62I, D74E, Q107K, T111L
# notes: pIII not in the entry; order Vλ-linker-VH; also called scFv 15
# B10: 11.H2m1.L1 (scFv)
# scFv: QLVLTQSPSASASLGASVKLTCTLSSAHKTYTIAWHQQQPEKGPRYLMKVKSDGSYSKGDGIPDRFSGSSSGAERYLTISSLQSEDEADYYCGADDNGGYVFGGGTKLTVLGGGSSRSSSSGGGGSGGGGEQSVKESGGGLVQPGGSLRLSCAASGFTLSRHALTWVRQAPGKGLEWIGAIDNAGTTYYASWAKSRFTISRNTDLHTVYLQMNSLRAEDTAVYFCARVFYDINSGYYLDGMDLWGPGTLVTVSS
# notes: pIII not in the entry; order Vλ-linker-VH; The printed entry has an E before QSVKE of the VH; also called scFv 11
# B11: 9.H2.L1 (scFv)
# scFv: B3 scFv with D34A, Y36H, Q49K, T57S, T60D, V62I, D74E, Q107K, T111L
# notes: pIII not in the entry; order Vλ-linker-VH; also called scFv 9
# B12: 7.H2m1.L2 (scFv)
# scFv: QSVLTQPPSASGTPGQRVTISCSGSSAHKTYTVNWYQQLPGTAPKLLIYVKSDGSYQRPSGVPDRFSGSKSGTSASLAISGLQSEDEADYYCGADDNGGYVFGGGTKLTVLGGGSSRSSSSGGGGSGGGGEQSVKESGGGLVQPGGSLRLSCAASGFTLSRHALTWVRQAPGKGLEWIGAIDNAGTTYYASWAKSRFTISRNTDLHTVYLQMNSLRAEDTAVYFCARVFYDINSGYYLDGMDLWGPGTLVTVSS
# notes: pIII not in the entry; order Vλ-linker-VH; The printed entry has an E before QSVKE of the VH; also called scFv 7
# B13: 13.H1.L1 (scFv)
# scFv: QLVLTQSPSASASLGASVKLTCTLSSAHKTYTIAWHQQQPEKGPRYLMKVKSDGSYSKGDGIPDRFSGSSSGAERYLTISSLQSEDEADYYCGADDNGGYVFGGGTKLTVLGGGSSRSSSSGGGGSGGGGQVQLQESGPGLVKPSETLSLTCAVSGYSISRHALTWIRQPPGKGLEWIGAIDNAGTTYYASWAKSRVTISVDTSKNQFSLKLSSVTAADTAVYYCARVFYDINSGYYLDGMDLWGPGTLVTVSS
# notes: pIII not in the entry; order Vλ-linker-VH; also called scFv 13
# Target: T1, GFRα4 isoform a (GFRα4a), Fc fusion …
# Assay: phage ELISA, immobilized GFRα4a (FIG. 6)
# From the text: (§1) To perform these ELISAs, the GFRα4a isoform comprising a portion of GFRα4a (Asn24 -Ser245, UniProt accession #Q9GZZ7-2) was used, followed by a Factor Xa cleavage site/linker, a portion of optimized IgG1 Fc domain (Pro100-Lys330), and 6 His residues for purification. The GFRα4b isoform comprised a portion of GFRα4b (Asn24-Va1274, UniProt #Q9GZZ7-1), followed by a TEV cleavage site linker, and a portion of human IgG1 Fc domain (Asp104-Lys330).
# (§2) Binding of the positive scFvs from this experiment were also screened for binding to GFRα4b (FIG. 7). […] As observed in previous ELISAs of this type with the original rabbit P4-10 expressed as an antibody fragment on phage, reactivity always appears greater against the GFRα4b isoform.
row,binding result,Binder
1,binds,B1

# Target: T2, GFRα4 isoform b (GFRα4b), Fc fusion (human)
# T2 construct: the entry holds the whole fusion; also called GFR4α4b; GFRα4-Fc
# Assay: phage ELISA, immobilized GFRα4b against GFRα4a
# From the text: as §1, §2
row,binding result,Binder
1,binds,B1

# Target: T1, GFRα4 isoform a (GFRα4a), Fc fusion …
# Assay: phage ELISA, immobilized GFRα4a; first token of the cell
# From the text: as §1
row,binding result,Binder
1,binds,B2
2,binds,B3
3,no binding,B4

# Target: T2, GFRα4 isoform b (GFRα4b), Fc fusion
# Assay: phage ELISA, immobilized GFRα4b; second token of the cell
# From the text: as §1
# Target sequence in this assay (chain, as listed by the source limits assumed): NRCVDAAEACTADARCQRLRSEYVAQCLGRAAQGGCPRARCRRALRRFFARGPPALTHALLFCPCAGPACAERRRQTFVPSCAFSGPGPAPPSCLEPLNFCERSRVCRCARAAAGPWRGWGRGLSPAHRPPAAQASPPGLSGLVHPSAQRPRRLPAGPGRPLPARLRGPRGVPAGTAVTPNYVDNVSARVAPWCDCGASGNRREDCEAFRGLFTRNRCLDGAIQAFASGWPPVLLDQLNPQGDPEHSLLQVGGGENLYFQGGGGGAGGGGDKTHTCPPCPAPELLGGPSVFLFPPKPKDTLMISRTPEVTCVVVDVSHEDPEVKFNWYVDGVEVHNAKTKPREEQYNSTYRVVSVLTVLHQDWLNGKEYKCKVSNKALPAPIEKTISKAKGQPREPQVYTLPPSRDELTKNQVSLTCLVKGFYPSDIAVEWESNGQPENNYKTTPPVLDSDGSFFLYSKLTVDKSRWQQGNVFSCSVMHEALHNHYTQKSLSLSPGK
row,binding result,Binder
1,binds,B2
2,binds,B5
3,binds,B3
4,no binding,B4

# Target: T1, GFRα4 isoform a (GFRα4a), Fc fusion …
# Assay: phage ELISA, immobilized GFRα4a; first token of the cell (GFRα4b: NT)
# From the text: as §1
row,binding result,Binder
1,no binding,B6
2,no binding,B7
3,no binding,B8
4,no binding,B9
5,no binding,B10
6,no binding,B11
7,no binding,B12
8,no binding,B13

# Target: T1, GFRα4 isoform a (GFRα4a), Fc fusion …
# Assay: phage ELISA, immobilized GFRα4a; first token of the cell (W weak binding)
# From the text: as §1
row,binding result,Binder
1,binds,B5

# — patent US20210095036A1 (University of Pennsylvania, published 2021)
